# Laboratory results reported in the nanobody polyreactivity screen of Harvey et al. (2022).
# Experiment: yeast display, Sf9 membrane polyspecificity reagent, FACS + sequencing; frameworks hold sequencing errors
# Method in brief: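 Using colony PCR, genes from sorted yeast display clones were amplified, then sequenced on MiSeq at 2 × 250 and filtered by CDR length. The clones had been stained with 10% biotinylated, detergent-solubilized Sf9 membrane reagent for 1 hour at 4 °C and sorted by FACS into low and high (top ~1%) gates on anti-HA and streptavidin fluorescence. Polyreactivity labels come from the gate of origin.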
row,Sequence,polyreactivity (PSR sort gate)
1,QVQLVESGGGLVQAGGSLRLSCAASGSIFHRYAMGWYRQAPGKERELVAAISRRGGSTYYADSVKGRFTISRDNAKNTVYLQMNSLIPVDTAVYYCNASLAGSSGRNRFEYWGQGTQVTVSS,high polyreactivity
2,QVQLVESGGGLVQAGGSLRLSCAASGSIFHWYAMGWYRQAPGKERELVAAISYSGASTYYADSVKGRFTISRDNAKITVYLQMNSLKPDDTAVYYCAAKVTGKGYYWGQGTQVTVSS,high polyreactivity
3,QVQLVESGGGLVQAGGSLRLSCAASGSIFHYNAMGWYRQAPGKERELVAAISWRGGTTYYADSVKGRFTISRDNAKNTVYLQMNSLKPEDTAVYYCNRAYVYTYQRRDYDYWGQGTQVTVSS,low polyreactivity
4,QVQLVESGGGLVQAGGSLRLSCAASGSIFIGYAMGWYRQAPGKERELVAAISNSGGRTYYADSVKGRFTISRDNAKNTVYLQMNSLKPEDTAVYYCNVAYRIPYRMDYWGQGTQVTVSS,high polyreactivity
5,QVQLVESGGGLVQAGGSLRLSCAASGSIFIHYAMGWYRQAPGKERELVAAISRTGSTYYADSVKGRFTISRDNAKNTVYLQMNSLKPEDTAVYYCAKRISTRRYDYWGQGTQVTVSS,low polyreactivity
6,QVQLVESGGGLVQAGGSLRLSCAASGSIFINNGMGWYRQAPGKERELVAAINGGDGSTYYADSVKGRFTISRDNAKNTVYLQMNSLKPEDTAVYYCAKDYTIGYTYQYDYWGQGTQVTVSS,low polyreactivity
7,QVQLVESGGGLVQAGGSLRLSCAASGSIFIPNAMGWYRQAPGKERELVAAISLSDTTTYYADSVKGRFTISRDNAKNTVYLQMNSLKPEDTAVYYCAADYWFYPTSPVMDYWGQGTQVTVSS,low polyreactivity
8,QVQLVESGGGLVQAGGSLRLSCAASGSIFIPYAMGWYRQAPGKERELVAAISGSGGSTYYADSVKGRFTISRDNAKNTVYLQMNSLKPEDTAVYYCNAVYRRSKYYFSQGYDYWGQGTQVTVSS,high polyreactivity
9,QVQLVESGGGLVQAGGSLRLSCAASGSIFIPYAMGWYRQAPGKETELVAAISSSGSSYYADSVKGRFTISRDNAKNTVYLQMNSLKPEDTAVYYCAAERHYSYSSYDYWGQGTQVTVSS,low polyreactivity
10,QVQLVESGGGLVQAGGSLRLSCAASGSIFIRNAMGWYRQAPGKERELVAAISGSGSSTYYADSVKGRFTISRDNAKNTVYLQMNSLKPEDTSVYYCNTDRNHSYQYGGYDYWGQGTQVTVSS,low polyreactivity
11,QVQLVESGGGLVQAGGSLRLSCAASGSIFIRNAMGWYRQAPGKERELVAAITSRGGSRYYADSVKGRFTISRDNAKNTVYLQMNSLKPEDTSVYYCARRYYGLYDYWGQGTQVTVSS,low polyreactivity
12,QVQLVESGGGLVQAGGSLRLSCAASGSIFIRNAMGWYRQAPGKERELVAANSGSGSSTYYADSVKGRFTNSRDNAKNTVYLQMNSVKPEDTAVYYCNTDRTLSYQYGGYDYWGLGTQVTVSS,low polyreactivity
13,QVQLVESGGGLVQAGGSLRLSCAASGSIFISNAMGWYRQAPGKERELVAAISSSGGRTYYADSVKGRFTISRDNAKNTVYLQMNSLKPEDTAVYYCAVRGLYQGRRRYSSEYDYWGQGTQVTVSS,high polyreactivity
14,QVQLVESGGGLVQAGGSLRLSCAASGSIFITNAMGWYRQAPGKERELVAGITSGGSTYYADSVKGRFTISRDNAKNTFYLQMNSLKPEDTAVYYCAADGVTVTADEYDYWGHGTQVTVSS,low polyreactivity
15,QVQLVESGGGLVQAGGSLRLSCAASGSIFITNAMGWYRQAPGKERELVATITDSGGSTYYADSVKGRFTISRDNAKNTVYLQMNSLKPEDTAVYYGAKDRVYLTRVYHYDYWGQGTQVTVSS,low polyreactivity
16,QVQLVESGGGLVQAGGSLRLSCAASGSIFITYAMGWYRQAHGKERELVAAIRDSGDRTYYADSVKGRFTISRDNAKNTVYLQMNSLKPEDTAVYYCNKDIERYVRIYDSWGQGTQVTVSS,low polyreactivity
17,QVQLVESGGGLVQAGGSLRLSCAASGSIFITYAMGWYRQAPGKERELVAAIRDSGDRTYYADSVKGRFTISRDNAKKTVYLQMNSLKPEDTAVYYCAARIWTGRGRKLGYGYDYWGQGTQVTVSS,low polyreactivity
18,QVQLVESGGGLVQAGGSLRLSCAASGSIFITYAMGWYRQAPGKERELVAAIRDSGDRTYYADSVKGRFTISRDYAKNTVYLQMNSLKPEDTAVYYCNARWQEPLKYDYWGQGTQVTVSS,low polyreactivity
19,QVQLVESGGGLVQAGGSLRLSCAASGSIFITYAMGWYRQAPGKERELVAAIRRGGRTNYADSVKGRFTISRDNAKNTVYLQMNSLKPEDTAVYYCAAEFRTGWPYYPDYAYDYWGQGTQVTVSS,low polyreactivity
20,QVQLVESGGGLVQAGGSLRLSCAASGSIFITYDMGWYRQAPGKERELVAAISSVGRTTYADSVKGRFTISRDNAKNTVYLQMNSLKTEDTAVYYCAVVGRSSHNVRTYGYWGQGTQVTVTS,low polyreactivity
21,QVQLVESGGGLVQAGGSLRLSCAASGSIFIVYAMGWYRQAPGKERELVAAISWSGGSTYYADSVKGRFTISRDNAKNTVYLQMNSLNPEDTAVYYCDAKYTLPFRDVKYYSWGQGTQVTVSS,high polyreactivity
22,QVQLVESGGGLVQAGGSLRLSCAASGSIFIYNAMGWYRQAPGKERELVAAISSSGGSTYYADSVKGRFTISRDNAKNTVYLQMNSLKPEDTAVYYCAARTYYVRGLGGRPGMDYCGQGTQVTVSS,low polyreactivity

row,Sequence,polyreactivity (PSR sort gate)
1,QVQLVESGGGLVQAGGSLRLSCAASGSIFIYNAMGWYRQAPGKERELVAAISSSGGSTYYADSVKGRFTISRDNAKNTVYLQMNSLNPEDTAVSYCAARTYYVRGLGGRPGMDYWGQGTQVTVSS,low polyreactivity
2,QVQLVESGGGLVQAGGSLRLSCAASGSIFKANGMGWYRQAPGKEREFVAAITRSGATTYYADSVKGRFTISRDNAKNTVYLQMNSLKPEDTAVYYCNVKAWRDLYYAGFDYWGQGTQVTVSS,low polyreactivity
3,QVQLVESGGGLVQAGGSLRLSCAASGSIFKDNAMGWYRQAPGKERELVAAITSGASTNYADSVKGRFTISRDNAKNTVYLQMNSLKPEVTAVYYCAAVLAGGVYWVVHYDYWGQGTQVTVSS,low polyreactivity
4,QVQLVESGGGLVQAGGSLRLSCAASGSIFKGNAMGCYRQAPWKESEMVAAISGGGGSTYYADSVKGRFTISRDNAKNTVYLQMYSLKPEDTAVYYCAARYYESPGDRSGFRYGYWGQGTQVTVSS,high polyreactivity
5,QVQLVESGGGLVQAGGSLRLSCAASGSIFKGNVMGWYRQAPGKERELVAAITWSGGSTYYADSVKGRFTISRDNAKNTVYLQMNSLKPEDTAVYYCNTDRYHRVDFDYWGQGTQVTVSS,high polyreactivity
6,QVQLVESGGGLVQAGGSLRLSCAASGSIFKGYAMGWYRQAPGKERELVAAISSSGGSTYYADSVKGRFTISRDNAKNTVYLQMNSLKPEDTAVYYCNTDRYYTYDYWGQGTQVTVSS,low polyreactivity
7,QVQLVESGGGLVQAGGSLRLSCAASGSIFKIYAMGWYRQAPGKERELVARITRRGGRTNYADSVKGRFTISRDNAKNTVYLQMNSLKPEDTAVYYCASLGRRGGDYWGQGTQVTVAS,high polyreactivity
8,QVQLVESGGGLVQAGGSLRLSCAASGSIFKKYAMGWYRQAPGKERELVAAISSTGGSTKYADSVKGRFTISRDNAKNTVYLQMNSLKPEDTAVYYCAVRYKWPYDYWGQGTQVTVSS,high polyreactivity
9,QVQLVESGGGLVQAGGSLRLSCAASGSIFKKYAMGWYRQAPGKERELVAAISSTGGSTKYADSVKGRFTISRDNAKNTVYLQMNSLKPEDTAVYYCNAPGLRDYDAEYDYWGQGTQVTVSS,high polyreactivity
10,QVQLVESGGGLVQAGGSLRLSCAASGSIFKKYAMGWYRQAPGKERELVAAISSVGGTYYADSVKGRFTISRDNAKNTVYLQMNSLKPEDTAVYYWYTDGYVGSIRSGLYIYDYWGQGTQVTVSS,low polyreactivity
11,QVQLVESGGGLVQAGGSLRLSCAASGSIFKKYAMGWYRQAPGKERELVAAITRGTYYADSVKGRFTISRDNAKNTVYLQMNSLKPEDTAVYYCNREYWGRGYYRVRGEYDYWGQGTQVTVSS,low polyreactivity
12,QVQLVESGGGLVQAGGSLRLSCAASGSIFKLNAMGWYRQAPGKERELVAAITFSDGSTNYADSVKGRFTISRDNAKNTVYLQMNSLKPEDTAVYYCAAEFYYRTQWYYYWGQGTQVTVSS,high polyreactivity
13,QVQLVESGGGLVQAGGSLRLSCAASGSIFKLYALGWYRPAPGKERELVAAISLSDGGTYYADSVKGRFTISRDNPKNTVYLQMNSLKPEDTAVYYCNKYYWYPYGRAHDYGYWGQGTQVTVSS,high polyreactivity
14,QVQLVESGGGLVQAGGSLRLSCAASGSIFKNYAMGWSRQSPGKERELVASITTGASTNYADSVKGRFTISRDNAKNTVYLQMNSLKPEDTAVYYCNADRYYSHYSYYYWGQGTQVTVSS,high polyreactivity
15,QVQLVESGGGLVQAGGSLRLSCAASGSIFKNYAMGWYRQAPGKERELVASITTGASTNYADSVKGRFTISRDNAKNTVYLQMNSLKPEDTAVYYCAKGGRTFRYFVAPRTFDHGYWGQGTQVTVSS,high polyreactivity
16,QVQLVESGGGLVQAGGSLRLSCAASGSIFKPYAMGWYRQAPGKERELVAAISSSGGSTYYADSVKGRFTISRDNAKNTVYFQMNSLKPEDTAVYYCNADWYYAGYGYWGQGTQVTVSS,low polyreactivity
17,QVQLVESGGGLVQAGGSLRLSCAASGSIFKQNAMGWYRQAPGKDRELVASIRASGDRTYYADSVKGRFTISRDNAKNTVYLQMNSLKPEDTAVYYCAARRVRTRGYNYWGQGTQVTVSS,high polyreactivity
18,QVQLVESGGGLVQAGGSLRLSCAASGSIFKQNAMGWYRQAPGKERELVADITSSGGSTYYADSVKGRFTISRDNAKNTVYLQMNSLKPEDTAVYYCAADGNGVDYDYWGQGTQVTVSS,low polyreactivity
19,QVQLVESGGGLVQAGGSLRLSCAASGSIFKQYVMGWYRQAPGKEREFVARISKSGGSTYYADSVKGRFTISRDNAKNTVYLQMNSLKPEDTAVYYCAVASKQALQPWYDYWGQGTQVTVSS,high polyreactivity
20,QVQLVESGGGLVQAGGSLRLSCAASGSIFKRNAMGWYRQAPGKERELVASISSGGSTHYADSVKGRFTISRDNAKNTVYLQMNSLKPEDTAVYYCAADSSWYVLYGSYYRSGLDYWGQGTQVTVSS,low polyreactivity
21,QVQLVESGGGLVQAGGSLRLSCAASGSIFKRYAMGRYRQAPGKERELVAAISYSGTSTYYADSVKGRFTISRDTAKNTVYLQMNSLKPEDTAVYYCNKVPGYRHYLGYPGRYGYWGQGTQVTVSS,high polyreactivity
